Laboratory results published in the DeepSol protein solubility set.

assay: soluble on expression in E. coli; label from the status in PepcDB or PDB records

Soluble on expression in E. coli, not soluble:
MGSDKIHHHHHHMALIEGFRVRNYRALRDITLGRLSAEQQGDPLTPFTVVIGKNGVGKSTLFDAFGFVADCLSKDVESACDDKQRGGFERMRSLGTEESIRFDIYYREAKGERPITYELAINLDSSGRPFVESEVLKQRRKGQKHGRPYPFLRLHHGVGKVWAGEEAVETSSGEEDRAQEDVELTDLRQLGIATLGTLKEHPRIKRFRDFLKGWHLSYFHPDSARSIPSAGAQRHLDVHGENIGNVVQYMEREHKERFKTILDRIAAKIPGVHSIRTTVTQDKRVLLQFNDGAFNDPFYAGQMSDGTLKIFAYLLLMEDPEPPPFICIEEPENGLYHRLLDSLASELRSHATGKKNAPQIFVTTHQPYFVDALSTKEVWILEKGKNGFSTICRASDIDLVRNLVEEGLPLGGLWYGDYLDTK, MGSDKIHHHHHHMALRSMDELRQQAQGALSLNIAFIGVVNGLFSTLHALGNADSAALAAATGMDTGYVLRWCDAAYAFGWLELTDNEQWRLSEDGDRMRPEAENSRVGVAVGAVLSAHMAERAAGLMRTGERPGEKVLAERETILPWFGLMLENNFRKTFEEKICPTVPIFAEVDARGGLAVDLGCGNGWYLRALAARCGHLHGLGLDGFAENIRQATEKAQSEGIADRLHFDEGDIHQFSLPEPADLIAMNRSLHHVWENRGEIFQRLHASLKPEGAIVIWEPAWPDDHRVLREPPLRGMAFQNLTEHVQGNHFLHPEEIATALSEAGLHPEIFPFGSDVVVVGRV, MGSDKIHHHHHHMANNYMKRKDRIILTAVEIIDQLGVQGLTIREIASRQEISEAAIYRHFANKSEILLGTIDYFSSYDALLFRTIESQNMKAWEGITFLLASYTEYYENYPAITAVTFTQEAFQLEPEARERMENVIDNRLRFIKQMVIKGQKEGEFTRDICSEGIVDIIFGTVQFIILRWRAKNYDFALKEHVLSTLSILIEAFSTVKLENRFAWGGVFNQEVSSSTFDSVLTRPGLFLEKGKDQVNEKSEG, MGSDKIHHHHHHMANSNMQATDAVAQDTASASGEFDALLNQAFRPKTTQAAKAVEAAVQTLAQQALANTITVSDDAYKSISAIIAQIDFKLTEQIKLILQHPDWQKLESSWRGMEHLVYNTETDEKLKIRFMNLSKDELRRNMKRYKGIAWDQSPMFKKLYEAEYGQLGGEPYGCIIADYYFDHTPPDVDLLGSIAKVAASAHAPFIAGASPSVLQMDSWQELANPRDLTKIVTQNLEYAPWNSLRASEDSRYIGLTMPRFLARLPYGAKTNPVDEFDFEEDADGSDHTKYVWSNAAYAMGVNINRSFKHYGWCTLIRGVESGGAVENLPCHTFPTDDGGVDMKCPTEIAISDRREAELAKNGFIPLIHRKNSDYAAFIGAQSLQKPQEYYDPDATANANLSARLPYLFACSRFAHFLKCIVRDKIGSFKEREDMQRWLNEWIMNYVDADPVNSSQETKARRPLAAAEVVVEEVEGNPGYYDAKFFLRPHFQLEGLTGSLRLVTKLPSVKQGNA, MGSDKIHHHHHHMAPNYMTEKWREDEEYLSYVEDLLATEEVQKLAEYTQHMHSTRLEHSISVSYHSYKLAKRWNGNARATARAGLLHDLFYYDWRTTKFDEGSHAYVHPRIAAKNAEKITELSDLERDIIIKHMWGATIAPPKYKESYIVTFVDKYCAVKEAALPMTTAMKTKWRQYFGQQSI, MGSDKIHHHHHHMAPYPYKVQTTVPELQYENFDGAKFGYMFWPVQNGTNEVRGRVLLIHGFGEYTKIQFRLMDHLSLNGYESFTFDQRGAGVTSPGRSKGVTDEYHVFNDLEHFVEKNLSECKAKGIPLFMWGHSMGGGICLNYACQGKHKNEISGYIGSGPLIILHPHTMYNKPTQIIAPLLAKFLPRVRIDTGLDLKGITSDKAYRAFLGSDPMSVPLYGSFRQIHDFMQRGAKLYKNENNYIQKNFAKDKPVIIMHGQDDTINDPKGSEKFIQDCPSADKELKLYPGARHSIFSLETDKVFNTVFNDMKQWLDKHTTTEAKP, MGSDKIHHHHHHMAQIIAVHSFRGGTGKSNLIANMAATMALQGQRVGIIDTDIQSPGIHVIFGINENKMERTLNDYLWGYCNIKDAAYDVTEALAIEQGNTSTVKGSLHLVPCSIKASEIARVLREGYDVVRLNDGFQEFIRSLKLDYLLIDTHPGLNEETLLSIGISNVLVILLRPDHQDFQGTAVTVDVARKLKVPKMLLVINKVLPSLNFLDLQQQVEKIYNAPVVGILPLSEDMVQLASKGLFSLRYPQHPISQTIKGITNQIASLVVSH
